Patent US20110200590A1

How the values were obtained:
Assay in all cases: cell-based or functional assay
[1] = target: Interleukin-10 (IL-10) released by human monocytes (human) (UniProt P22301)
[2] = target: FcRI (CD64), high affinity immunoglobulin gamma Fc receptor I, on human monocytes (human) (UniProt P12314)
[3] = target: anti-MBP (105-120) monoclonal IgM Mab 1, clone DM1A2C1

UniProt P12314, sequence (P12314 16-374 limits assumed, form in doubt): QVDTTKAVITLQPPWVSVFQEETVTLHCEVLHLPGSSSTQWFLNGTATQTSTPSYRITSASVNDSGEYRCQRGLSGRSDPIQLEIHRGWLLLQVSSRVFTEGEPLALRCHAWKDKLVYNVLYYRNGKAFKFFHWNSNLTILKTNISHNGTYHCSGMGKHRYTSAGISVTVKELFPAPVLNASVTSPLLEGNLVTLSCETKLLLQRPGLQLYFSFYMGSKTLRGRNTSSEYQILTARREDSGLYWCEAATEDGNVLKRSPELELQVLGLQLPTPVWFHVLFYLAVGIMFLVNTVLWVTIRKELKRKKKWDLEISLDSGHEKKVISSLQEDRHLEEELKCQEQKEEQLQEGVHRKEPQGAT
UniProt P22301, sequence (P22301 19-178 limits assumed): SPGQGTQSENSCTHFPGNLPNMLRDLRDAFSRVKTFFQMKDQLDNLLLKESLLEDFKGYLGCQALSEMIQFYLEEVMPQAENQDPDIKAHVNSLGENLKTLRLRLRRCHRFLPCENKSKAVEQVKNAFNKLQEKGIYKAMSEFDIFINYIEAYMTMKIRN

In the case of “neutralising monoclonal antibody anti-human IL-10 (R&D Systems)”, the % inhibition of proliferation of human MBP+-T line by Mab 1 in the presence of Mab IL-10 (T + PBM + Mab 1 + Mab IL-10) [1] is reported as 0% and the % inhibition of proliferation of human MBP+-T line by Mab CD64 in the presence of Mab IL-10 (T + PBM + Mab CD64 + Mab IL-10) [1] is reported as 0%.

With “mouse monoclonal antibody anti-human CD64, IgG1 (Ancell)” the % inhibition of proliferation of human MBP+-T cells (T + PBM + Mab CD64) [2] was 100%, the % inhibition of proliferation of human MBP+-T line (T + PBM + Mab CD64) [2] was 98% and the Levels of IL-10 in the supernatants of human monocytes (MNC + Mab CD64) [2] was 3950 pg/mL. The Levels of IL-10 in the supernatants of human monocytes activated with LPS (MNC + LPS + Mab CD64) [2] was 6360 pg/mL.

In the case of QFLGSYL [“scrambled” peptide (QFLGSYL Seq ID no 5)], the % inhibition of proliferation of human MBP+-T cells by Mab 1 in the presence of pep 2 (T + PBM + Mab 1 + pep 2) [3] is reported as 98%.

GLQLYFS [peptide 222-228 CD64 (GLQLYFS)] showed a % inhibition of proliferation of human MBP+-T cells by Mab 1 in the presence of pep 1 (T + PBM + Mab 1 + pep 1) [3] of 0%.
